# Laboratory results from doi:10.1101/2025.09.16.676506 (bioRxiv, 2025).
# Where two headings read alike, the source gives them in different places.
# T1: TatC with a C-terminal 3XFLAG tag (E. coli), P69423
# T1 chain: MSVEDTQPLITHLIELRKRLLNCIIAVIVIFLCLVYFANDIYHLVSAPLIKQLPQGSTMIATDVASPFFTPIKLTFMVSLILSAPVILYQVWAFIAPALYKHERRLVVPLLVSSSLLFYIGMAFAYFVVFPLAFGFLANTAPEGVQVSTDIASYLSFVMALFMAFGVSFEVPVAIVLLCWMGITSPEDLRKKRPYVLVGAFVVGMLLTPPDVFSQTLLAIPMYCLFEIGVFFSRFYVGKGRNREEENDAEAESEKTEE
# T2: TatB3C3 complex (E. coli, UniProt P69425;P69423)
# T2 sequence 1: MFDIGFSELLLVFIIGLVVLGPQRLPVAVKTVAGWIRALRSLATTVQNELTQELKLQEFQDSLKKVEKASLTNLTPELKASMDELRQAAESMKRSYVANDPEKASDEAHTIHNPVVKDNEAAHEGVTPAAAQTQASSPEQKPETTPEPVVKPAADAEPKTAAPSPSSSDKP
# T2 sequence 2: T1 chain
# B1: TatC with a C-terminal 3XFLAG tag, P69423 1-258 (natural protein)
# chain: T1 chain
# B2: TatB (natural protein)
# chain: T2 sequence 1
# B3: SufI–8×His (natural protein)
# chain: MSLSRRQFIQASGIALCAGAVPLKASAAGQQQPLPVPPLLESRRGQPLFMTVQRAHWSFTPGTRASVWGINGRYLGPTIRVWKGDDVKLIYSNRLTENVSMTVAGLQVPGPLMGGPARMMSPNADWAPVLPIRQNAATLWYHANTPNRTAQQVYNGLAGMWLVEDEVSKSLPIPNHYGVDDFPVIIQDKRLDNFGTPEYNEPGSGGFVGDTLLVNGVQSPYVEVSRGWVRLRLLNASNSRRYQLQMNDGRPLHVISGDQGFLPAPVSVKQLSLAPGERREILVDMSNGDEVSITCGEAASIVDRIRGFFEPSSILVSTLVLTLRPTGLLPLVTDSLPMRLLPTEIMAGSPIRSRDISLGDDPGINGQLWDVNRIDVTAQQGTWERWTVRADEPQAFHIEGVMFQIRNVNGAMPFPEDRGWKDTVWVDGQVELLVYFGQPSWAHFPFYFNSQTLEMADRGSIGQLLVNPVP
# Experiments:
# Test in all cases: cryo-EM structure
# [1] = target: T1, TatC with a C-terminal 3XFLAG tag (E. …); conditions: remark: other sources report otherwise
# cryo-EM structure = target: the molecule itself
# TatB3C3 complex [2] = target: T2, TatB3C3 complex
# TatB3C3 complex [3] = target: T2, TatB3C3 complex; remark: listed apart in the source
binder,measurement,setting,value
B1,stoichiometry N,[1],3
B2,stoichiometry N,cryo-EM structure,3
B3,stoichiometry N,TatB3C3 complex [2],1
same,stoichiometry N,TatB3C3 complex [3],2
